For three molecules, 细胞结合阳性率, 细胞结合阳性率 (HIT19a signal remaining with ds-Diabody present) and 细胞结合阳性率 (HIT3a signal remaining with ds-Diabody present) results are on record in CN101899115A.

The target in assay [1] is CD3 (on Jurkat cells) (UniProt P07766). Briefly: FACS, HIT3a alone on Jurkat cells, FITC anti-mouse IgG. A general note: A flow cytometer gives signals particle by particle.
The target of assay [2] is CD19 (on Raji cells) (UniProt P15391). Briefly: FACS, HIT19a alone on Raji cells, FITC anti-mouse IgG.
Assay [3] has the same target. Briefly: FACS competition on Raji cells: ds-Diabody mixed with competitor HIT19a, HIT19a detected with FITC anti-mouse IgG.
In assay [4] the target is CD3 (on Jurkat cells) (UniProt P07766). As to the kind of experiment: FACS competition on Jurkat cells: ds-Diabody mixed with competitor HIT3a, HIT3a detected with FITC anti-mouse IgG.

For the molecule 抗CD3鼠源性单克隆抗体HIT3a (antibody), the 细胞结合阳性率 with CD3 (on Jurkat cells) [1] was 100%.

抗CD19鼠源性单克隆抗体HIT19a (antibody) registered a 细胞结合阳性率 with CD19 (on Raji cells) [2] of 100%.

B1: 二硫键稳定的抗CD3-抗CD19微型双功能抗体 (disulfide-stabilized anti-CD3/anti-CD19 diabody) (bispecific antibody)
chain 1: ADIELTQSPAIMSASPGEKVTMTCSASSSVSYMNWYQQKSGTSPKRWIYDTSKLASGVPARFSGSGSGTSYSLTISGMEAEDAATYYCQQWSSNPFTFGCGTKLELKRGGGGSQVQLQQSGAELVRPGSSVKISCKASGYAFSSYWMNWVKQRPGQGLEWIGQIYPGDGDTNYNGKFKGQATLTADKSSSTAYMQLSGLTSEDSAVYFCARKTISSVVDFYFDYWGQGTTLTVSS
chain 2: DIVLTQSPKFMSTSVGDRVSSPAKASQNVGTNVAWYQQKPGQSPKPLIYSATYRNSGVPDRFTGSGSGTDFTLTITNVQSKDLADYFCQQYNRYPYTSGGGTKLEIKRGGGGSQVQLQQSGAELARPGASVKMSCKASGYTFTRYTMHWVKQRPGQCLEWIGYINPSRGYTNYNQKFKDKATLTTDKSSSTAYMELTRLTSEDSAVYYCARYYDDHYSLDYWGQGTTVTVSS
For the molecule B1, in the assay with CD19 (on Raji cells) [3], the 细胞结合阳性率 (HIT19a signal remaining with ds-Diabody present) turned out to be 63.3%. Moreover, in the assay with CD3 (on Jurkat cells) [4], the 细胞结合阳性率 (HIT3a signal remaining with ds-Diabody present) came to 51.1%.
